The values below come from patent US20110189194A1, “USE OF CD95 INHIBITORS FOR THE TREATMENT OF INFLAMMATORY DISORDERS” (Deutsches Krebsforschungszentrum Stiftung des offentlichen …, priority 2008, published 2011).

“Also recorded” adds a separate entry of the source.

The conditions of assay [1]: treated within the first 8 h of injury, compared to placebo, naloxone, or MPSS at later time points; cited from earlier work.
The next assay has as its system peritoneum. The assay can be described thus: Thioglycolate-induced peritonitis, infiltration of neutrophils. In kind it is in vivo, mice. As to the method: (§1) Mice were treated intravenously 5 minutes after SCI or induction of thioglycolate-induced peritonitis with 50 μg (solved in 200 μl sterile PBS) of either CD95-RB69 or a mutated form, CD95-(R87S)-RB69, which is unable to bind CD95L.
For thioglycolate-induced peritonitis, 1 ml of 3% thioglycolate broth (Fluka #70157) was injected i.p. in CD95L^f/f;LysMcre and CD95L^f/f mice or in wt mice acutely treated with CD95-RB69 or its respective control. In this model, neutrophils are known to start infiltrating the peritoneum within the first hours, whereas macrophage infiltration peaks at 72 h. At the indicated times, mice were sacrificed, blood samples collected and peritoneal cavities lavaged with 10 ml sterile Hanks balanced salt solution (HBSS; Invitrogen #14170-138) containing 0.25% bovine serum albumin (Roche #10735094001). Total cell counts were performed in a Neubauer hematocytometer (Brand), and differential cell counts were carried out by flow cytometry. Results are expressed as the absolute number of neutrophils or macrophages×10^5/cavity. For every experiment performed, blood immune cell populations were analyzed by the appropriate cell markers.

The target of another assay is T1, human CD95L (Homo sapiens, UniProt P48023).
T1 construct: T4 (bacteriophage T4 fibritin foldon trimerisation domain)
T1 sequence (P48023 with tags, fused parts or gaps limits assumed): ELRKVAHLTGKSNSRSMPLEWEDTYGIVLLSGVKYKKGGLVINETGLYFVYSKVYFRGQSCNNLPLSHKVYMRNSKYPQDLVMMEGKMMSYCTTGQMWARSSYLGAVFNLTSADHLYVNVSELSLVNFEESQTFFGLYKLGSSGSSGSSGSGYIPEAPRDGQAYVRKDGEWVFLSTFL
The assay can be described thus: Neutralisation of human CD95L-T4 induced apoptosis on Jurkat cells (DEVD-AFC cleavage). It counts as cell-based. The conditions noted are these: 250 ng/ml human CD95L-T4. As to the method: (§2) Mutation of R87S abrogates the ability of the CD95-RB69 protein to inhibit CD95L-mediated killing of Jurkat cells. Jurkat cells were incubated with 250 ng/ml of human (A) or mouse (B) CD95L-T4 in the presence of wild-type and mutant CD95-RB69 in duplicates for each concentration of the fusion proteins. Decreased cell death is represented by low DEVD-AFC cleavage rates.
(§3) While we were using a human CD95 fusion protein in mouse, we had to analyse the binding of the R87S based control-protein for the human CD95/murine CD95L-interaction prior to the studies performed. We addressed this question by examining the ability of the CD95-fusion proteins to neutralise the apoptosis inducing capacity of either human or mouse CD95L on Jurkat cells in vitro.

In the next assay the target is T2, mouse CD95L (Mus musculus, UniProt P41047).
T2 construct: T4 (bacteriophage T4 fibritin foldon trimerisation domain)
T2 sequence (P41047 with tags, fused parts or gaps limits assumed): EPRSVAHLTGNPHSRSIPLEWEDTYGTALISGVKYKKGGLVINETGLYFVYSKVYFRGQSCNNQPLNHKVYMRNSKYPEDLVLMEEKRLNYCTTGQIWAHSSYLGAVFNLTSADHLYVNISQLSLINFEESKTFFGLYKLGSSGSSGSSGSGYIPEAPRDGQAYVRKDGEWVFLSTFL
The assay can be described thus: Neutralisation of mouse CD95L-T4 induced apoptosis on Jurkat cells (DEVD-AFC cleavage). It counts as cell-based. The conditions noted are these: 250 ng/ml mouse CD95L-T4. As to the method:
as §2, §3

Assay [2] deals with injured spinal cord. The assay can be described thus: Immune cell infiltration into the injured spinal cord after SCI (flow cytometry). In kind it is in vivo, mice. As to the method:
SCI models: Transection injury of the spinal cord was performed as previously described (Demjen et al., 2004). For the crush injury model, forceps were held on the spinal cord for 15 seconds resulting in a lateral compression of the spinal cord (Plemel et al., 2008). Immediately following injury and for an additional week mice received antibiotics (Gentamycin, 5 ml/kg of a 0.2 mg/ml solution) to prevent infections. Post-operative care included housing of the animals at 27° C., food and water ad libitum, and manual expression of the bladders once daily.
as §1
Stainings were performed on cells derived from bone marrow, peritoneum, blood or spinal cord tissue. For preparation of mouse cells derived from spinal cord tissue, the animals were perfused with HBSS to remove blood from the organs. Then the spinal cord (1 cm around the lesion site) was isolated and lysed for 3 h in thermolysin (0.5 mg/ml, Sigma #T-7902) on a shaker at 37° C. Tissue was incubated for 10 more minutes in trypsin 0.5%-EDTA (Invitrogen #25300096) and finally homogenized by passing 10 times through a Pasteur pipette and through a 40 μm cell strainer (BD #352340).
For all stainings, cells were resuspended in FACS buffer (PBS, 0.2% NaN3) and preincubated in Fc block for 10 minutes before stained with the respective antibodies 30 minutes on ice. For intracellular stainings blood samples were fixed with 4% PFA after Ery Lysis and permeabilized with methanol before the staining. Samples were run on a FACSCantoll flow cytometer (BD) and analyzed using FACSDiva (BD) software or FlowJo software. For all FACS analyses done on cells derived from spinal cord tissue 1,000,000 events were counted.
For all tissue analysis, neutrophils were identified as CD45 positive, GR-1 high-positive and their characteristic forward (FSC) and side scatter (SSC) profile. […]
A general note: Flow cytometry measures light scatter and fluorescence of single cells or particles in a stream.

Assay [3] relates to injured spinal cord. The assay can be described thus: Gene expression profiling (microarray) of spinal cord 24 h after SCI. It counts as in vivo, mice. The conditions noted are these: compared to vehicle-treated. As to the method: as §1
For tissue, spinal cords were dissected out and RNA was extracted with the mirVana microRNA Extraction Kit essentially according to the manufacturer's protocol (Ambion #AM1560). mRNA of injured mice were represented as normalized to the respective uninjured animals. Cells from peritoneal exudates or bone-marrow derived cells were washed with PBS and taken up in RLT-buffer containing β-mercaptoethanol. RNA was extracted using the RNeasy Mini Kit (Qiagen, #74104).
.Cel files were generated using Affymetrix software and imported into Chipinspector. The data were analyzed by Genomatix Chipinspector as described by the manufacturer's guidelines (Genomatix GmbH, Munich, Germany, http://www.genomatix.de). dChip software was used for hierarchical clustering of datasets (http://biosuntharvard.edu/complab/dchip/). A 5% p-value was applied as a cut-off. […]

The mark [4] stands for this setting: 24 h after SCI, 50 μg i.v. 5 minutes after SCI, 1,000,000 events counted.

For the molecule `C[C@H]1C[C@@H]2[C@H]([C@@H](O)C[C@@]3(C)[C@H]2CC[C@]3(O)C(=O)COC(=O)CCC(=O)O)[C@@]2(C)C=CC(=O)C=C12` [MPSS, methylprednisolone sodium succinate], the “motor and sensory function of spinal injured patients” value in assay [1] was “significantly improved motor and sensory function”.

B1: CD95-RB69: CD95L-neutralizing trimeric fusion protein: human CD95-ECD (M1-E168) fused to bacteriophage RB69 fibritin foldon domain, with streptag-II (protein)
chain: MVGIWTLLPLVLTSVARLSSKSVNAQVTDINSKGLELRKTVTTVETQNLEGLHHDGQFCHKPCPPGERKARDCTVNGDEPDCVPCQEGKEYTDKAHFSSKCRRCRLCDEGHGLEVEINCTRTQNTKCRCKPNFFCNSTVCEHCDPCTKCEHGIIKECTLTSNTKCKEEGSSGSSGSSGSGYIEDAPSDGKFYVRKDGAWVELPTASGPSSSSSSAWSHPQFEK
modifications: CD95-RB69 fusion protein
notes: CD95L-neutralizing trimeric fusion protein: human CD95-ECD (M1-E168) fused to bacteriophage RB69 fibritin foldon domain, with streptag-II
As to B1, the “Neutrophil number ± SEM in peritoneal cavity” value in the assay with peritoneum (6 h after thioglycolate, 50 μg i.v. 5 minutes after induction) was 13.92 ± 1.46 *10^5. In addition, in the assay with peritoneum (6 hours after thioglycolate injection), the “infiltration of neutrophils into the peritoneum (in words)” value is listed as “significantly reduced; also recorded: Reduced infiltration”. Moreover, the “neutralisation of the apoptotic activity of human CD95L” value in the assay with human CD95L is reported as “efficiently neutralises”. For the same molecule, in the assay with mouse CD95L, the “neutralisation of the apoptotic activity of mouse CD95L” value is recorded as “efficiently neutralises”. Further, in the assay with injured spinal cord [2] (setting [4]), the “CD45 cells in injured spinal cord, Events ± SEM” value was “CD45: 698 ± 57 Events” and the “Neutrophils in injured spinal cord, Events ± SEM” value is recorded as “Neutrophils: 400 ± 54 Events”. Also, in the assay on injured spinal cord [2] (24 hours after injury, systemic administration), the “infiltration of neutrophils into the lesion site (in words)” value is “decreased; also recorded: reduced”. Besides, in the assay on injured spinal cord [3], the “expression of genes involved in apoptosis” value is given as “reduced; also recorded: down-regulation” and the “expression of genes involved in the immune response” value is “down-regulation”.
